Measured values as given in US20190085055A1.
Where “and” joins values, the source holds several entries; their conditions need not be identical. Equal entries are not always repeated. Each block holds one substance with its values, some of them ahead of it.

Key:
[1] = molecular target: D3H44 light chain, wild type; assay: LCCA (SPR), competitor L2 F98L
D3H44 light chain F98L [2] = assay: LCCA (SPR), competitor L1 WT
D3H44 light chain F98Y = assay: LCCA (SPR), competitor L1 L89R_F98W
[3] = molecular target: D3H44 light chain L89R_F98W; assay: LCCA (SPR), competitor L2 F98Y
Sequence of D3H44 light chain L89R_F98W (light, as listed by the source): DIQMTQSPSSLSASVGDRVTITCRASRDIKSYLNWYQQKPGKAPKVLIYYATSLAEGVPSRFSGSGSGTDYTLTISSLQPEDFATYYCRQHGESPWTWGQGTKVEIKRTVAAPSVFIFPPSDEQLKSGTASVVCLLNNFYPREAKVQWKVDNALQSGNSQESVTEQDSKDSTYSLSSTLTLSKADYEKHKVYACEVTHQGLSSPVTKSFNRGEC

[4] = molecular target: tissue factor extracellular domains (human) (UniProt P13726); assay: SPR, TF immobilised, purified Fab as analyte, 1:1 model
Sequence of tissue factor extracellular domains (human) (P13726 33-251): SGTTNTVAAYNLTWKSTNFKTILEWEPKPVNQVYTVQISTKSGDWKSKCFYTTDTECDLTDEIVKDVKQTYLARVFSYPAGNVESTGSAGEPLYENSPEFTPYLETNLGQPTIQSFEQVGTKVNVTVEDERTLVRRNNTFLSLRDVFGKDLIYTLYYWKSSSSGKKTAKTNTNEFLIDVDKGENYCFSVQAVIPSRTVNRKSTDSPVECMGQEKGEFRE

D3H44 light chain F116A [5] = assay: LCCA (SPR), competitor L2 F118W_V133S
[6] = molecular target: D3H44 light chain F118W_V133S; assay: LCCA (SPR), competitor L1 F116A
D3H44 light chain S176L = assay: LCCA (SPR), competitor L2 WT
Sequence of D3H44 light chain S176L (light, as listed by the source): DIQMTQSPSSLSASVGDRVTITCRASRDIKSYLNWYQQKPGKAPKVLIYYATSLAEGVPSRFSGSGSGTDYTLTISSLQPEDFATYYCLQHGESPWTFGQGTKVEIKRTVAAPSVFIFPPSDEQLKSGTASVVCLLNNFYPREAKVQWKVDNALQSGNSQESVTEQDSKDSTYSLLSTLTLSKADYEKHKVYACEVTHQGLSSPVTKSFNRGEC

[7] = molecular target: D3H44 light chain, wild type; assay: LCCA (SPR), competitor L1 S176L
D3H44 light chain F98L [8] = assay: LCCA (SPR), competitor L1 P44W
D3H44 light chain F98W = assay: LCCA (SPR), competitor L1 P44W
D3H44 light chain F98A = assay: LCCA (SPR), competitor L1 P44W
D3H44 light chain P44W [9] = assay: LCCA (SPR), competitor L2 F98L
D3H44 light chain P44W [10] = assay: LCCA (SPR), competitor L2 F98W
D3H44 light chain P44W [11] = assay: LCCA (SPR), competitor L2 F98A
[12] = molecular target: D3H44 light chain, wild type; assay: LCCA (SPR), competitor L2 F118W_V133S
[13] = molecular target: D3H44 light chain F118W_V133S; assay: LCCA (SPR), competitor L1 WT
[14] = molecular target: D3H44 light chain F118W_V133S; assay: LCCA (SPR), competitor L1 F116S
[15] = molecular target: D3H44 light chain, wild type; assay: LCCA (SPR), competitor L2 F116A
D3H44 light chain F116S = assay: LCCA (SPR), competitor L2 F118W_V133S
D3H44 light chain F116A [16] = assay: LCCA (SPR), competitor L1 WT
D3H44 light chain P44W [17] = assay: LCCA (SPR), competitor L1 Y87G
D3H44 light chain Y87G = assay: LCCA (SPR), competitor L2 P44W
Sequence of D3H44 light chain Y87G (light, as listed by the source limits assumed): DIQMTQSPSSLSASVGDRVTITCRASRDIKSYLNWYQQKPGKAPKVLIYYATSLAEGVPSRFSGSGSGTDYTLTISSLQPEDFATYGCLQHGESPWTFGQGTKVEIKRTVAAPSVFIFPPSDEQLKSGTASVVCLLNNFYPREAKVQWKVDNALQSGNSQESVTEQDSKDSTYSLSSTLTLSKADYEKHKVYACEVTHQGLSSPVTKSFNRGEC

[18] = molecular target: D3H44 light chain L89R_F98T; assay: LCCA (SPR), competitor L2 WT
Sequence of D3H44 light chain L89R_F98T (light, as listed by the source limits assumed): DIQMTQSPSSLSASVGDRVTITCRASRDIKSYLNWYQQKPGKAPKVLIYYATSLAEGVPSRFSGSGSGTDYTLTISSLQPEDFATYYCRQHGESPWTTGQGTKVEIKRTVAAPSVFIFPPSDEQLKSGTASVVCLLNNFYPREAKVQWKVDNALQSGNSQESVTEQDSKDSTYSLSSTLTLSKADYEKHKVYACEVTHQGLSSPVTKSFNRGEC

[19] = molecular target: D3H44 light chain, wild type; assay: LCCA (SPR), competitor L1 L89R_F98T

Sequence of D3H44 light chain, wild type (light, as listed by the source): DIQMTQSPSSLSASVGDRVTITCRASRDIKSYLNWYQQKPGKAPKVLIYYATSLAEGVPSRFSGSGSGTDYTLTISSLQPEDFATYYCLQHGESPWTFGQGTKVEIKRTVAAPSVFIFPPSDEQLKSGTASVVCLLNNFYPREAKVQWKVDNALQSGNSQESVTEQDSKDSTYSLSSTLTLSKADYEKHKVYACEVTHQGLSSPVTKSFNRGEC
Sequence of D3H44 light chain F98Y (light, as listed by the source limits assumed): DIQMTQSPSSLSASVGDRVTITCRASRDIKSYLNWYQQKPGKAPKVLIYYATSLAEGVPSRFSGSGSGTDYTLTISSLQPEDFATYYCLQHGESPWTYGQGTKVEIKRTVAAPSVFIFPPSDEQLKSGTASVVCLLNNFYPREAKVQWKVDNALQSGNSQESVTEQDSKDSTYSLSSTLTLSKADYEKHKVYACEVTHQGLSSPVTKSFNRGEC

H2 L2 of H2 L2:H2 L1 (screen) (D3H44 light chain F98Y): 71.6 | H2 L2 of H2 L2:H2 L1 (verification) (D3H44 light chain F98Y): 65.6 | H2 L1 of H2 L2:H2 L1 (screen) [3]: 0.5 | H2 L1 of H2 L2:H2 L1 (verification) [3]: 11.7
Substance: D3H44 heavy chain (Fab format) V37S_A97K

H2 L1 of H2 L2:H2 L1 (screen) (D3H44 light chain F116A [5]): 35.7 | H2 L1 of H2 L2:H2 L1 (verification) (D3H44 light chain F116A [5]): 56.1 and 24.5 | H2 L2 of H2 L2:H2 L1 (screen) [6]: 63.9 | H2 L2 of H2 L2:H2 L1 (verification) [6]: 24.5 and 56.1
Substance: D3H44 heavy chain (Fab format) A139V

Kd [4]: 0.043 nM
Substance: D3H44 Fab Design 11 H1-L1 (H1 S188L_V190Y, L1 V133S)

Kd [4]: 0.025 nM
Substance: D3H44 Fab Design 31 H1-L1 (H1 Q39D_A141G_V185A, L1 Q38R_L135W)

H2 L1 of H2 L2:H2 L1 (screen) (D3H44 light chain S176L): 9.32 | H2 L2 of H2 L2:H2 L1 (screen) [7]: 92.5
Substance: D3H44 heavy chain (Fab format) S188L

H1 L1 of H1 L1:H1 L2 (screen) [12]: 67.1 | H1 L1 of H1 L1:H1 L2 (verification) [12]: 77 | H1 L1 of H1 L1:H1 L2 (screen) (D3H44 light chain F116A [5]): 64.7 | H1 L1 of H1 L1:H1 L2 (verification) (D3H44 light chain F116A [5]): 59.8 | H1 L2 of H1 L1:H1 L2 (screen) [13]: 28 | H1 L2 of H1 L1:H1 L2 (verification) [13]: 8.2 | H1 L2 of H1 L1:H1 L2 (screen) [6]: 25.1 | H1 L2 of H1 L1:H1 L2 (verification) [6]: 0.759
Substance: D3H44 heavy chain (Fab format) A139I_V190S

H2 L1 of H2 L2:H2 L1 (screen) (D3H44 light chain S176L): 5.94 | H2 L2 of H2 L2:H2 L1 (screen) [7]: 103
Substance: D3H44 heavy chain (Fab format) F174V_S188L

H1 L2 of H1 L1:H1 L2 (screen) (D3H44 light chain P44W [17]): 23.9 | H1 L2 of H1 L1:H1 L2 (verification) (D3H44 light chain P44W [17]): 31 | H1 L1 of H1 L1:H1 L2 (screen) (D3H44 light chain Y87G): 54.5 | H1 L1 of H1 L1:H1 L2 (verification) (D3H44 light chain Y87G): 58.1
Substance: D3H44 heavy chain (Fab format) L45W

Kd [4]: 0.024 nM
Substance: D3H44 Fab Design 30 H1-L1 (H1 D148G_Q175K, L1 Q124E_Q160E_T180E)

Second part, the substance before the results:

Substance: D3H44 heavy chain (Fab format) F100W
H2 L1 of H2 L2:H2 L1 (screen) [1]: 29.7 | H2 L1 of H2 L2:H2 L1 (verification) [1]: 44.9 | H2 L2 of H2 L2:H2 L1 (screen) (D3H44 light chain F98L [2]): 56.8 | H2 L2 of H2 L2:H2 L1 (verification) (D3H44 light chain F98L [2]): 38.9

Substance: D3H44 Fab Design 13 H1-L1 (H1 L143A_D144G_Q179R, L1 Q124E_V133W_Q160E_T180E)
Kd [4]: 0.087 nM

Substance: D3H44 Fab Design 30 H2-L2 (H2 L145E_K147T, L2 Q160K_T178R)
Kd [4]: 0.06 nM

Substance: D3H44 heavy chain (Fab format) V37A_W103V
H2 L2 of H2 L2:H2 L1 (screen) (D3H44 light chain F98L [8]): 54.8 | H2 L2 of H2 L2:H2 L1 (verification) (D3H44 light chain F98L [8]): 52 | H2 L2 of H2 L2:H2 L1 (screen) (D3H44 light chain F98W): 53 | H2 L2 of H2 L2:H2 L1 (verification) (D3H44 light chain F98W): 23.3 | H1 L2 of H1 L1:H1 L2 (screen) (D3H44 light chain F98A): 25.3 | H2 L1 of H2 L2:H2 L1 (screen) (D3H44 light chain P44W [9]): 22.8 | H2 L1 of H2 L2:H2 L1 (verification) (D3H44 light chain P44W [9]): 23 | H2 L1 of H2 L2:H2 L1 (screen) (D3H44 light chain P44W [10]): 18.6 | H2 L1 of H2 L2:H2 L1 (verification) (D3H44 light chain P44W [10]): 44.7 | H1 L1 of H1 L1:H1 L2 (screen) (D3H44 light chain P44W [11]): 58.9

Substance: D3H44 heavy chain (Fab format) A139W_V190S
H1 L2 of H1 L1:H1 L2 (screen) [14]: 15.7 | H1 L2 of H1 L1:H1 L2 (verification) [14]: 20.2 | H2 L1 of H2 L2:H2 L1 (screen) [15]: 21.1 | H2 L1 of H2 L2:H2 L1 (verification) [15]: 22.3 | H1 L1 of H1 L1:H1 L2 (screen) (D3H44 light chain F116S): 84.8 | H1 L1 of H1 L1:H1 L2 (verification) (D3H44 light chain F116S): 55.4 | H1 L1 of H1 L1:H1 L2 (screen) (D3H44 light chain F116A [5]): 68.7 | H1 L1 of H1 L1:H1 L2 (verification) (D3H44 light chain F116A [5]): 83.8 | H2 L2 of H2 L2:H2 L1 (screen) (D3H44 light chain F116A [16]): 66.9 | H2 L2 of H2 L2:H2 L1 (verification) (D3H44 light chain F116A [16]): 43 | H1 L2 of H1 L1:H1 L2 (screen) [6]: 33.4 | H1 L2 of H1 L1:H1 L2 (verification) [6]: 0.722

Substance: D3H44 heavy chain (Fab format) V37E
H1 L1 of H1 L1:H1 L2 (screen) [18]: 54.1 | H1 L1 of H1 L1:H1 L2 (verification) [18]: 90.9 | H1 L2 of H1 L1:H1 L2 (screen) [19]: 25 | H1 L2 of H1 L1:H1 L2 (verification) [19]: 16.5
